Assay results published in the Immune Epitope Database (IEDB).
Values belong to the sequence of their own block, whether it stands above or below them.

Columns and labels:
Experiment in all cases: IEDB peptide-MHC binding, purified MHC/competitive/radioactivity; filed as Kd, often an IC50 or EC50 that approximates it; ≥ and ≤ were set here for values at or beyond the usual limits of such assays
HLA-A*03:01 = molecular target: HLA-A*03:01
HLA-A*11:01 = molecular target: HLA-A*11:01
HLA-A*31:01 = molecular target: HLA-A*31:01
HLA-A*33:01 = molecular target: HLA-A*33:01
HLA-A*68:01 = molecular target: HLA-A*68:01
[1] = source organism: Vaccinia virus WR
[2] = source organism: SARS coronavirus Tor2
[3] = source organism: Dengue virus 4 Philippines/H241/1956
[4] = source organism: Dengue virus 3 Martinique/1243/1999
[5] = source organism: Mammarenavirus machupoense
[6] = source organism: Dengue virus 1 Brazil/97-11/1997
[7] = source organism: Dengue virus 2 Jamaica/1409/1983
[8] = source organism: Lymphocytic choriomeningitis virus (strain Armstrong)

Sequence: DSIKDVIHDY
- Kd (HLA-A*03:01; [1]): ≥ 70100 nM
- Kd (HLA-A*11:01; [1]): 5140 nM
- Kd (HLA-A*31:01; [1]): 15400 nM
- Kd (HLA-A*33:01; [1]): ≥ 70000 nM
- Kd (HLA-A*68:01; [1]): 10200 nM

Sequence: LQFAYSNRNR
- Kd (HLA-A*03:01; [2]): 890 nM
- Kd (HLA-A*11:01; [2]): 1730 nM
- Kd (HLA-A*31:01; [2]): 5.59 nM
- Kd (HLA-A*33:01; [2]): 1270 nM
- Kd (HLA-A*68:01; [2]): 1050 nM

Sequence: KPKPAVRFAI
- Kd (HLA-A*31:01; [1]): ≥ 70000 nM

Sequence: ASKTINALVY
- Kd (HLA-A*03:01; [1]): 761 nM
- Kd (HLA-A*11:01; [1]): 1010 nM
- Kd (HLA-A*31:01; [1]): 11100 nM
- Kd (HLA-A*33:01; [1]): ≥ 70000 nM
- Kd (HLA-A*68:01; [1]): ≥ 41800 nM

Sequence: SSKGNCAIK
- Kd (HLA-A*03:01; [1]): 6770 nM
- Kd (HLA-A*11:01; [1]): 2150 nM
- Kd (HLA-A*31:01; [1]): 2150 nM
- Kd (HLA-A*33:01; [1]): 17700 nM
- Kd (HLA-A*68:01; [1]): 3480 nM

Sequence: TTSKMLLNR
- Kd (HLA-A*11:01; [3]): 178 nM
- Kd (HLA-A*68:01; [3]): 59.8 nM

Sequence: LVVISVIFY
- Kd (HLA-A*03:01; [1]): ≥ 24400 nM
- Kd (HLA-A*11:01; [1]): ≥ 36700 nM
- Kd (HLA-A*31:01; [1]): 10700 nM
- Kd (HLA-A*33:01; [1]): ≥ 66100 nM
- Kd (HLA-A*68:01; [1]): 5480 nM

Sequence: DLPSGFNTLK
- Kd (HLA-A*03:01; [2]): 2300 nM
- Kd (HLA-A*11:01; [2]): 1220 nM
- Kd (HLA-A*31:01; [2]): ≥ 36700 nM
- Kd (HLA-A*33:01; [2]): 10400 nM
- Kd (HLA-A*68:01; [2]): 11 nM

Sequence: TANPVVTKK
- Kd (HLA-A*11:01; [4]): 245 nM

Sequence: MSTYSDICSK
- Kd (HLA-A*03:01; [1]): ≥ 70100 nM
- Kd (HLA-A*11:01; [1]): ≥ 69800 nM
- Kd (HLA-A*31:01; [1]): ≥ 70000 nM
- Kd (HLA-A*33:01; [1]): ≥ 70000 nM
- Kd (HLA-A*68:01; [1]): ≥ 70200 nM

Sequence: RLSILSKDK
- Kd (HLA-A*03:01; [1]): 613 nM
- Kd (HLA-A*11:01; [1]): 1210 nM
- Kd (HLA-A*31:01; [1]): 10700 nM
- Kd (HLA-A*33:01; [1]): 12900 nM
- Kd (HLA-A*68:01; [1]): 1080 nM

Sequence: FALKKLIIDR
- Kd (HLA-A*03:01; [1]): ≥ 70100 nM
- Kd (HLA-A*11:01; [1]): 2100 nM
- Kd (HLA-A*31:01; [1]): 1070 nM
- Kd (HLA-A*33:01; [1]): 3300 nM
- Kd (HLA-A*68:01; [1]): 550 nM

Sequence: EKVETWALR
- Kd (HLA-A*33:01; [4]): 74.9 nM
- Kd (HLA-A*68:01; [4]): ≥ 22900 nM

Sequence: SSFDYCGMDH
- Kd (HLA-A*03:01; [5]): 13800 nM
- Kd (HLA-A*11:01; [5]): 6580 nM
- Kd (HLA-A*31:01; [5]): 10600 nM
- Kd (HLA-A*33:01; [5]): ≥ 48900 nM
- Kd (HLA-A*68:01; [5]): 3400 nM

Sequence: TVWEVQGYK
- Kd (HLA-A*03:01; [2]): 2.91 nM
- Kd (HLA-A*11:01; [2]): 0.757 nM
- Kd (HLA-A*31:01; [2]): 47.7 nM
- Kd (HLA-A*33:01; [2]): 129 nM
- Kd (HLA-A*68:01; [2]): 0.913 nM

Sequence: NLKAMLYIIR
- Kd (HLA-A*03:01; [1]): 8530 nM
- Kd (HLA-A*11:01; [1]): 10900 nM
- Kd (HLA-A*31:01; [1]): 4840 nM
- Kd (HLA-A*33:01; [1]): 133 nM
- Kd (HLA-A*68:01; [1]): 209 nM

Sequence: LNNSFYYMK
- Kd (HLA-A*03:01; [5]): 7240 nM
- Kd (HLA-A*11:01; [5]): 619 nM
- Kd (HLA-A*31:01; [5]): 26.4 nM
- Kd (HLA-A*33:01; [5]): ≥ 77700 nM
- Kd (HLA-A*68:01; [5]): 67.7 nM

Sequence: RLKMDKLTLK
- Kd (HLA-A*03:01; [6]): 13 nM

Sequence: LLNGQGPMK
- Kd (HLA-A*03:01; [4]): 16.2 nM

Sequence: VSLKKTNDK
- Kd (HLA-A*03:01; [1]): 193 nM
- Kd (HLA-A*11:01; [1]): 32.1 nM
- Kd (HLA-A*31:01; [1]): 8770 nM
- Kd (HLA-A*33:01; [1]): ≥ 54800 nM
- Kd (HLA-A*68:01; [1]): 19400 nM

Sequence: SVNEYHMLK
- Kd (HLA-A*03:01; [1]): 6.1 nM
- Kd (HLA-A*11:01; [1]): 2.23 nM
- Kd (HLA-A*31:01; [1]): 6.92 nM
- Kd (HLA-A*33:01; [1]): 85.7 nM
- Kd (HLA-A*68:01; [1]): 2.24 nM

Sequence: DVQRTRCKY
- Kd (HLA-A*03:01; [1]): ≥ 53900 nM
- Kd (HLA-A*11:01; [1]): ≥ 77900 nM
- Kd (HLA-A*31:01; [1]): ≥ 77900 nM
- Kd (HLA-A*33:01; [1]): ≥ 35300 nM
- Kd (HLA-A*68:01; [1]): 9190 nM

Sequence: TISKDNLER
- Kd (HLA-A*03:01; [1]): 2620 nM
- Kd (HLA-A*11:01; [1]): 170 nM
- Kd (HLA-A*31:01; [1]): 175 nM
- Kd (HLA-A*33:01; [1]): 490 nM
- Kd (HLA-A*68:01; [1]): 18.1 nM

Sequence: LVMAFIAFLR
- Kd (HLA-A*11:01; [6]): 1380 nM
- Kd (HLA-A*31:01; [6]): 73.5 nM
- Kd (HLA-A*33:01; [6]): 106 nM
- Kd (HLA-A*68:01; [6]): 31.8 nM

Sequence: AALAFHLTSR
- Kd (HLA-A*31:01; [4]): 17.5 nM

Sequence: RQMEGEGIFK
- Kd (HLA-A*03:01; [7]): 21.5 nM
- Kd (HLA-A*11:01; [7]): 127 nM

Sequence: LTKFVSAALH
- Kd (HLA-A*31:01; [8]): 864 nM
- Kd (HLA-A*33:01; [8]): 3760 nM
- Kd (HLA-A*68:01; [8]): 221 nM

Sequence: LWRTLGRNKR
- Kd (HLA-A*31:01; source organism: Dengue virus 3 Sri Lanka/1266/2000): 712 nM

Sequence: MLNIMNRRK
- Kd (HLA-A*03:01; [6]): 21 nM

Sequence: HLKCRLKMDK
- Kd (HLA-A*03:01; [6]): 68 nM

Sequence: VTAASAAQR
- Kd (HLA-A*68:01; [4]): 43.2 nM

Sequence: RTLAKEGIKR
- Kd (HLA-A*31:01; [7]): 14.3 nM

Sequence: AALSEGVYR
- Kd (HLA-A*31:01; source organism: Dengue virus 4 Dominica/814669/1981): 169 nM

Sequence: YTIGTTHFQR
- Kd (HLA-A*31:01; [7]): 44.3 nM
- Kd (HLA-A*33:01; [7]): 6.12 nM
- Kd (HLA-A*68:01; [7]): 17.3 nM

Sequence: MYFHRRDLR
- Kd (HLA-A*31:01; [7]): 0.137 nM
- Kd (HLA-A*33:01; [7]): 5.64 nM
- Kd (HLA-A*68:01; [7]): 346 nM

Sequence: WYLWEVKKQR
- Kd (HLA-A*33:01; [7]): 39.7 nM

Sequence: TYLALMATFK
- Kd (HLA-A*33:01; [6]): 11 nM

Sequence: YYCGGLKNVR
- Kd (HLA-A*33:01; [7]): 3.1 nM

Sequence: VTHSSAAQR
- Kd (HLA-A*31:01; [7]): 25.8 nM
- Kd (HLA-A*68:01; [7]): 42 nM

Sequence: NTTSKMLLNR
- Kd (HLA-A*33:01; [3]): 100 nM
- Kd (HLA-A*68:01; [3]): 179 nM

- Kd (HLA-A*03:01; source organism: Homo sapiens): 7.5 nM
Sequence: TLGWLLQTPK

Sequence: TVCYVLTGR
- Kd (HLA-A*31:01; [7]): 10.3 nM
- Kd (HLA-A*33:01; [7]): 1.6 nM
- Kd (HLA-A*68:01; [7]): 15.2 nM

- Kd (HLA-A*03:01; source organism: Homo sapiens): 28.9 nM
Sequence: KVLRENTSPK

Sequence: QAAILMGLDK
- Kd (HLA-A*68:01; [6]): 377 nM

Sequence: SAKLRWFVER
- Kd (HLA-A*31:01; [7]): 26.3 nM
- Kd (HLA-A*33:01; [7]): 46.5 nM

Sequence: AISGDDCVVK
- Kd (HLA-A*11:01; [7]): 2070 nM
